Source: patent US20260159579A1 (Pfizer, published 2026)

Legend:
[1] = molecular target: Mouse Fc-mouse GDF15 (Mu IgG1Fc_Fxa_Mu GDF15) (mouse); experiment: SPR BIAcore T200, 37C; Fc-GDF15 captured, monomeric Fc-Fab as analyte; murine GDF15 ligand (Mu IgG1Fc_Fxa_Mu GDF15), first run
[2] = molecular target: T1, Mouse Fc-human GDF15 (Mu IgG1Fc_Fxa_Hu GDF15) (human); experiment: SPR BIAcore T200, 37C; Fc-GDF15 captured, monomeric Fc-Fab as analyte; human GDF15 ligand (Mu IgG1Fc_Fxa_Hu GDF15), first run
T1 construct: Whole entry is the fusion: mouse IgG1 Fc, FXa site and linker, mature human GDF15; described as dimeric; also called Murine dimeric IgG1 Fc-human GDF-15 with FXa cleavage site; control human GDF15
T1 chain: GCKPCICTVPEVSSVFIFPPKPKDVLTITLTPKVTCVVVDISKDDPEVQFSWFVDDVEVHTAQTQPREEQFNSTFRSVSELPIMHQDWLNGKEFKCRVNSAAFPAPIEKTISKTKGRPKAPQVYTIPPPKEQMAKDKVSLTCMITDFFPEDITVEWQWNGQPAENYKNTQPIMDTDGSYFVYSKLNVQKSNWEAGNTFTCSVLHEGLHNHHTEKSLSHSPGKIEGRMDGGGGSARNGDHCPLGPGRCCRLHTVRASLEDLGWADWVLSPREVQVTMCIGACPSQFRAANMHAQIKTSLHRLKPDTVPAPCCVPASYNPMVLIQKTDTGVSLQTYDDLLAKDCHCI
Text: To understand the KD value, without the avidity effect, of GDF15_001 binding to GDF15, monomeric Fc-Fab was produced and tested in the same assay used in Example 2. […] Mu IgG1Fc_Fxa_Hu GDF15, Mu IgG1Fc_Fxa_Mu GDF15 and Mu IgG1Fc_Fxa_Cyno GDF15 were captured onto three different flow cells of a CM4 sensorchip (catalogue number BR100534, GE Healthcare) surface using the Mouse Antibody Capture Kit (BR100838, GE Healthcare) according to the manufacturer's protocol. The running and sample buffer was 10 mM HEPES pH 7.4, 0.15M NaCl, 3 mM EDTA, 0.05% P-20 (HBS-EP+). The final capture levels of Mu IgG1Fc_Fxa_Hu GDF15, Mu IgG1Fc_Fxa_Mu GDF15 and Mu IgG1Fc_Fxa_Cyno GDF15 were 19 resonance units (RU), 22 RU and 19 RU respectively. Flow cell 1 was used as a reference flow cell. […] The dissociation was monitored for 1200 seconds and the surface was regenerated with 10 mM Glycine pH 1.7. Binding affinities and rate constants were determined by fitting the resulting sensorgram data to a 1:1 Langmuir model in BIAcore T200 Evaluation software version 2.0 (GE Healthcare).

[3] = molecular target: T2, human Inhibin A (human, UniProt P05111 233-366; P08476 311-426); experiment: BLI, OctetRED 384; family member amine coupled to AR2G biosensor
T2 construct: Bought
T2 sequence (looked up) 1: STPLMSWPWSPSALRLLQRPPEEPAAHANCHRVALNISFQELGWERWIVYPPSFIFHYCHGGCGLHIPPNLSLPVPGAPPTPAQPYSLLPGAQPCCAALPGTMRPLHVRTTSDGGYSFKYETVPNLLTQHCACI
T2 sequence (looked up) 2: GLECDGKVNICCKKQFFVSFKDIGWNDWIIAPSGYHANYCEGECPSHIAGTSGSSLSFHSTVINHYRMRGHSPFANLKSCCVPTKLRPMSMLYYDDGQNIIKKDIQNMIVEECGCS
Method: (§1) To assess the binding specificity of GDF15_001 to human GDF15, GDF15_001 binding to additional TGFB family members was tested. Analysis was carried out on an Octet Red instrument.
(§2) The TGFB family members were diluted to 10 ug/ml in 10 mM Sodium Acetate pH 4.5 and amine coupled onto AR2G biosensors (catalogue #18-5092, ForteBio) according to the manufacturer's instructions. Monomeric GDF15_001 was diluted to 200 nM in kinetics buffer (catalogue #18-5032 ForteBio). Octet assays were conducted at room temperature with an association time of 300 seconds and a dissociation time of 180 seconds. The data was double referenced (Myszka, D., J. Mol. Recognit 1999; 279-284) and analyzed with Octet Data Analysis software version 8.1 (ForteBio).

[4] = molecular target: T3, human BMP11 (human, UniProt O95390 299-407); experiment: as above
T3 construct: Bought; also called GDF-11
T3 sequence (looked up): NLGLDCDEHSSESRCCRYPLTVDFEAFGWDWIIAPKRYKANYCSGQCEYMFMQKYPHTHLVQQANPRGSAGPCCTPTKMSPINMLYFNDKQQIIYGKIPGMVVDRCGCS
Method: as §1, §2

[5] = molecular target: T4, human BMP6 (human, UniProt P22004 382-513, limits assumed); experiment: as above
T4 construct: Bought
T4 sequence (looked up): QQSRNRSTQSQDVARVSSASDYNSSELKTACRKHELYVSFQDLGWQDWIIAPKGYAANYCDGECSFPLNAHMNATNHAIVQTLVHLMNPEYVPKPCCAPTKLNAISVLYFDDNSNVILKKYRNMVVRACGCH
Method: as §1, §2

[6] = molecular target: T5, human TGFß-1 (human, UniProt P01137 279-390); experiment: as above
T5 construct: Bought; also called TGFB-1
T5 sequence (P01137 279-390 limits assumed): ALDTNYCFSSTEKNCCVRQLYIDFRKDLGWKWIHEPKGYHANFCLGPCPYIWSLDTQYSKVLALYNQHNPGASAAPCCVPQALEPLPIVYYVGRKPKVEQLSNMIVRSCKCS
Method: as §1, §2

[7] = molecular target: T6, human Activin B (human, UniProt P09529 293-407); experiment: as above
T6 construct: Bought
T6 sequence (looked up): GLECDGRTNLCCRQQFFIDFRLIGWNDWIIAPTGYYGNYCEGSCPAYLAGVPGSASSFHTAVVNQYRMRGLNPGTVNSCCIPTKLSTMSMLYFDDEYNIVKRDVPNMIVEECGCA
Method: as §1, §2

[8] = molecular target: T7, human BMP2 (human, UniProt P12643 283-396); experiment: as above
T7 construct: Bought
T7 sequence (P12643 283-396 limits assumed): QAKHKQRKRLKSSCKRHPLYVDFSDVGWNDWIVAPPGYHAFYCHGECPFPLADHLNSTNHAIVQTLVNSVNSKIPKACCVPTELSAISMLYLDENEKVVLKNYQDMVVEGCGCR
Method: as §1, §2

[9] = molecular target: T8, human GDF8 (human, UniProt O14793 267-375, limits assumed); experiment: as above
T8 construct: In-house material
T8 sequence (looked up): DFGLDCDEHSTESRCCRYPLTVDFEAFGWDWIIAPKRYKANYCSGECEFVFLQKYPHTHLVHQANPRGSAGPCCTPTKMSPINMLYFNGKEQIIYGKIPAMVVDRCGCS
Method: as §1, §2

[10] = molecular target: T9, human BMP9 (human, UniProt Q9UK05 320-429); experiment: as above
T9 construct: Bought
T9 sequence (looked up): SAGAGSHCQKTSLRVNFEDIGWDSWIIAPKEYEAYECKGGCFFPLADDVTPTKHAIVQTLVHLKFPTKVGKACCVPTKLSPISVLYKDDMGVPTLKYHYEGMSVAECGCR
Method: as §1, §2

B1: monomeric GDF15_001 (CH23LS-GBT-GDF15_001) (Fab, V domains shown)
VH: QVQLVQSGAEVKKPGSSVKVSCKASGYTFSSYNIDWVRQAPGQGLEWMGGINPIFGTAFYNQKFQGRVTITADESTSTAYMELSSLRSEDTAVYYCAREAITTVGAMDHWGQGTLVTVSS
VL: EIVLTQSPATLSLSPGERATLSCRTSQSVHNYLAWYQQKPGQAPRLLIYDASTRADGIPARFSGSGSGTDFTLTISSLEPEDFAVYYCQQFWSWPWTFGQGTKVEIK
notes: Monovalent 'monomeric Fc-Fab' of GDF15_001 made to measure KD without avidity; also called CH23LS-GDF15_001; monomeric Fc-Fab
2.11 nM: Kd [1]
no binding (tested: 200 nM): binding result [3] | binding result [4] | binding result [5] | binding result [6] | binding result [7] | binding result [8] | binding result [9] | binding result [10]
0.0149 nM: Kd [2]
